Measured values from PMC8470970, “A Novel L-Asparaginase from Hyperthermophilic Archaeon Thermococcus sibiricus: Heterologous Expression and Characterization for Biotechnology Application” (International Journal of Molecular Sciences, 2021).

Substrate: NC(=O)C[C@H](N)C(=O)O
Test: ammonia release by direct Nesslerization; Lineweaver-Burk plot
Format: biochemical, Thermococcus sibiricus
Details: Tris-HCl 0.05 M, pH 9.0, 90 °C, printed substrate range 20-250 μM

B1: TsA (L-asparaginase from Thermococcus sibiricus) (Thermococcus sibiricus MM 739) (protein)
chain: MKKLLIIGTGGTIASAKTEQGYKSVLKIDEILKLAKIKLENGYKIDSTNIMNIDSTLIHPEDWEIIAKEVFKALDDYDGIIITHGTDTLAYTASMLSFMIKNPNKPIVLTGSMLPITENGSDAPRNIRTAIKFAMEDVAGVFVAFMDKIMLGCRTSKVRTLGLNAFMSINYPDVAYVKGEKILYNIPKEKFQPNGSPELDTKYEPRVVVLRVTPGLGGEIIDAVLDAGYKGIVLEGYGAGGLPYRKSNLLSKIKEITPKIPVIMTTQALYDGVDMRKYEVGRKALETGIIPAKDMTKEATITKLMWALGHTKDVEKIREIMHTNYVNEIKS
notes: full-length, 331 residues, codon-optimized synthetic gene in pET-28a(+) NheI/SalI, E. coli BL21 (DE3); SP-Sepharose ion exchange
Km: 2.8 mM
